Substitutions are numbered along the chain they refer to.
B1: Germ6 (antibody, V domains shown)
VH: ADLVQSGAVVKKPGDSVRVSCEAQGYRFPDYIIHWIRRAPGQGPEWMGWMNPMGGQVNIPWKFQGRVSMTRDTSIETAYLDLRGLKSDDTAVYYCVRDRSNGSGKRFESSNWFLDLWGRGTAVTVQS
VL: QSALTQPRSVSGSPGQSVTISCTGTHNLVSWCQHQPGRAPKLLIYDFNKRPSGVPDRFSGSGSGGTASLTISGLQDEDDAEYFCWAYEAFGGGTKLTVL
B2: Germ12 (antibody, V domains shown)
VH: QVDLVQSGAVVKKPGDSVRVSCEAQGYRFPDYIIHWIRRAPGQGPEWMGWMNPMGGQVNIPWKFQGRVSMTRDTSIETAYMDLRGLRSDDTAVYYCVRDRSNGSGKRFESSNWFLDLWGRGTLVTVSS
VL: B1 VL
B3: NglycoNDplus6 (antibody, V domains shown)
VH: B1 VH with V19I, R27T, Y79F, S100G, N101D, G104R, K105R, R106H, E108D, V125I
VL: B1 VL with G12A, S72T, E77D
B4: NglycoSA (antibody, V domains shown)
VH: B1 VH with V19I, Y79F, S103A, V125I
VL: B1 VL with G12A, S72T, E77D
B5: Germ18 (antibody, V domains shown)
VH: B2 VH with D3Q, V10E, D16A, R19K, Q25S, D82E
VL: B1 VL
B6: Germ12_NglycoSA_CysCA (antibody, V domains shown)
VH: B2 VH with S104A
VL: B1 VL with C32A
B7: NglycoND (antibody, V domains shown)
VH: B1 VH with V19I, Y79F, N101D, V125I
VL: B1 VL with G12A, S72T, E77D
B8: CysCA (antibody, V domains shown)
VH: B1 VH with V19I, Y79F, V125I
VL: B1 VL with G12A, C32A, S72T, E77D
B9: CysCV (antibody, V domains shown)
VH: B1 VH with V19I, Y79F, V125I
VL: B1 VL with G12A, C32V, S72T, E77D
B10: Germ17 (antibody, V domains shown)
VH: B2 VH
VL: B1 VL with Q35H, R38K, L43M, D76A, D79E
B11: Hydro2 (antibody, V domains shown)
VH: B1 VH with V19I, W61Q, Y79F, V125I
VL: B1 VL with G12A, S72T, E77D, A89N
B12: Germ23 (antibody, V domains shown)
VH: B2 VH with D3Q, V10E, D16A, R19K, Q25S, D82E
VL: B1 VL with Q35H, R38K, L43M, D76A, D79E
B13: NVS49-L1A2 (antibody, V domains shown)
VH: B1 VH with V19I, Y79F, V125I
VL: B1 VL with G12A, S72T, E77D

What was measured:
[1] = biological target: Clade B BaL gp120 protein (HIV-1 Clade B, BaL); assay: BLI (Octet), IgG on anti-hIgG Fc sensor, gp120 analyte, 1:1 fit
[2] = biological target: Clade C DU172.17 gp120 protein (HIV-1 Clade C, DU172.17); assay: as above
[3] = biological target: Clade B BaL gp120 protein (HIV-1 Clade B, BaL); assay: BLI (Octet), IgG on anti-hIgG Fc sensor, gp120 analyte, 1:1 fit; average of 4 runs
[4] = biological target: Clade C DU172.17 gp120 protein (HIV-1 Clade C, DU172.17); assay: as above

Binder	Kd [1]	fold (KD vs average of 4 runs of L1A2) [1]	koff [1]	kon [1]	Kd [2]	fold (KD vs average of 4 runs of L1A2) [2]	koff [2]	kon [2]	Kd [3]	fold (KD vs average of 4 runs of L1A2) [3]	koff [3]	kon [3]	Kd [4]	fold (KD vs average of 4 runs of L1A2) [4]	koff [4]	kon [4]
B1	0.92 nM	1.7 fold	7.11e-05 s⁻¹	77100 M⁻¹ s⁻¹	19.3 nM	0.76 fold	0.000466 s⁻¹	24100 M⁻¹ s⁻¹								
B2	0.88 nM	1.62 fold	7.09e-05 s⁻¹	80800 M⁻¹ s⁻¹	21.5 nM	0.85 fold	0.000438 s⁻¹	20400 M⁻¹ s⁻¹								
B3	11.3 nM	20.9 fold	0.0006 s⁻¹	53300 M⁻¹ s⁻¹												
B4	0.84 nM	1.54 fold	6.12e-05 s⁻¹	73300 M⁻¹ s⁻¹	18.4 nM	0.72 fold	0.000303 s⁻¹	16500 M⁻¹ s⁻¹								
B5	0.98 nM	1.81 fold	7.09e-05 s⁻¹	72200 M⁻¹ s⁻¹	21.3 nM	0.84 fold	0.000415 s⁻¹	19500 M⁻¹ s⁻¹								
B6	0.63 nM	1.16 fold	4.92e-05 s⁻¹	78300 M⁻¹ s⁻¹	18.1 nM	0.71 fold	0.000337 s⁻¹	18600 M⁻¹ s⁻¹								
B7	18.7 nM	34.5 fold	0.00128 s⁻¹	68400 M⁻¹ s⁻¹	368 nM	14.5 fold	0.0183 s⁻¹	49700 M⁻¹ s⁻¹								
B8	1.1 nM	2.03 fold	8.01e-05 s⁻¹	71900 M⁻¹ s⁻¹	19.6 nM	0.77 fold	0.000446 s⁻¹	22800 M⁻¹ s⁻¹								
B9	0.82 nM	1.52 fold	6.4e-05 s⁻¹	77900 M⁻¹ s⁻¹	26.7 nM	1.05 fold	0.000495 s⁻¹	18500 M⁻¹ s⁻¹								
B10	0.65 nM	1.2 fold	5.15e-05 s⁻¹	79300 M⁻¹ s⁻¹	17.5 nM	0.69 fold	0.000331 s⁻¹	18900 M⁻¹ s⁻¹								
B11	0.96 nM	1.77 fold	7.18e-05 s⁻¹	74700 M⁻¹ s⁻¹	55.5 nM	2.18 fold	0.000974 s⁻¹	17600 M⁻¹ s⁻¹								
B12	0.97 nM	1.79 fold	7.66e-05 s⁻¹	79100 M⁻¹ s⁻¹	22.4 nM	0.88 fold	0.000368 s⁻¹	16400 M⁻¹ s⁻¹								
B13									0.54 nM	1 fold	4.41e-05 s⁻¹	81300 M⁻¹ s⁻¹	25.4 nM	1 fold	0.000526 s⁻¹	21100 M⁻¹ s⁻¹

Reference: patent US20210040184A1
